For experiment [1], the target named is Macaca fascicularis CD3ε/δ-Fc fusion heterodimer (Macaca fascicularis) (UniProt Q95LI8). Description: SPR Biacore, CODV-Fab. A general note: SPR reads the build-up and loss of mass on a sensor chip optically.
Experiment [2] has as its target human CD3ε/δ-Fc fusion heterodimer (hCD3ε/δ-hFc) (human) (UniProt P04234). Description: SPR Biacore, CODV-Fab.
Experiment [3] deals with human CD123 on cells (human) (UniProt P26951). Put plainly: cell-based or functional assay.
Chain of human CD123 on cells (human) (P26951 19-378): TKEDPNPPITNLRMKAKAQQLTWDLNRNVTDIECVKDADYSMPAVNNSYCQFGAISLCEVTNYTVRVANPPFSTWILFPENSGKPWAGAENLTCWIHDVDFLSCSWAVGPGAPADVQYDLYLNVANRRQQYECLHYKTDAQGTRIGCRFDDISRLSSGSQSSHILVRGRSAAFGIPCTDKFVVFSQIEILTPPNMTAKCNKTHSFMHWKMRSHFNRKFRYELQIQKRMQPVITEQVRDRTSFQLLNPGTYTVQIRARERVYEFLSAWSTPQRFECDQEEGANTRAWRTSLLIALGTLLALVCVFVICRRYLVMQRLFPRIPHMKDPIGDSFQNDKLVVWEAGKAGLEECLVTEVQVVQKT
Experiment [4] concerns the target Macaca fascicularis CD3 (TCR complex) on cyno HSC-F cells (Macaca fascicularis) (UniProt Q95LI5). Put plainly: flow cytometry, cyno HSC-F. On the technique in general: Flow cytometry measures light scatter and fluorescence of single cells or particles in a stream.
Experiment [5] deals with human CD3 (CD3ε of the TCR complex) on human T cells (human) (UniProt P07766). Description: flow cytometry, Jurkat E6-1 (w/o primary ab: 7).
Experiment [6] has the same target. Put plainly: flow cytometry, Jurkat E6-1 (w/o primary ab: 7; control row of Table 2; same value as in Table 1).
Experiment [7] concerns the target Macaca fascicularis CD3 (TCR complex) on cyno HSC-F cells (Macaca fascicularis) (UniProt Q95LI5). Description: flow cytometry, cyno HSC-F (control row of Table 2; same value as in Table 1).
Experiment [8] deals with Macaca fascicularis CD3ε/δ-Fc fusion heterodimer (Macaca fascicularis) (UniProt Q95LI8). Description: SPR, cyno against human CD3ε/δ.
Experiment [9] shares this target. Put plainly: SPR, SP-34 used as IgG.
The target of experiment [10] is human CD3ε/δ-Fc fusion heterodimer (hCD3ε/δ-hFc) (human) (UniProt P04234). Put plainly: SPR, SP-34 used as IgG.
Chain of human CD3ε/δ-Fc fusion heterodimer (hCD3ε/δ-hFc) (human) (chain, as listed by the source mutant, chain 1 of 2): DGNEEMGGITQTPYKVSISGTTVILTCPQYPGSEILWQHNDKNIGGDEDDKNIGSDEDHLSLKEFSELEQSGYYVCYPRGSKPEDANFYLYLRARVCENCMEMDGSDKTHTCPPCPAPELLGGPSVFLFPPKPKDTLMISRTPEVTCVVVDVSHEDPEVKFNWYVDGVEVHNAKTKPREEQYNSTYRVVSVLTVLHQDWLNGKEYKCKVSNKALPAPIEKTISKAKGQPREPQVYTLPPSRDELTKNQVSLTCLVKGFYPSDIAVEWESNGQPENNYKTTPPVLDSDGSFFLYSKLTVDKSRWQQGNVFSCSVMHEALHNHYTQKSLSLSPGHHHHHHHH
Chain of human CD3ε/δ-Fc fusion heterodimer (hCD3ε/δ-hFc) (human) (P04234 22-105, stated change not applied, chain 2 of 2): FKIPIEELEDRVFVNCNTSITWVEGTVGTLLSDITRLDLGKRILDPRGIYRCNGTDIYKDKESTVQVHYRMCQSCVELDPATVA
Experiment [11] addresses Macaca fascicularis CD3ε/δ-Fc fusion heterodimer (Macaca fascicularis) (UniProt Q95LI8). Description: SPR Biacore, Fab-fragment.
Experiment [12] has as its target human CD3ε/δ-Fc fusion heterodimer (hCD3ε/δ-hFc) (human) (UniProt P04234). Put plainly: SPR Biacore, Fab-fragment.
Experiment [13] has as its target recombinant huCD3ε/γ, Fc-tagged (PB01225) (human) (UniProt P07766). Put plainly: SPR, Fc-captured CD3, 100 nM.

Results on 5 substances are retold here after patent US20180222987A1.

Chain of Macaca fascicularis CD3ε/δ-Fc fusion heterodimer (Macaca fascicularis) (chain, as listed by the source mutant, chain 1 of 2): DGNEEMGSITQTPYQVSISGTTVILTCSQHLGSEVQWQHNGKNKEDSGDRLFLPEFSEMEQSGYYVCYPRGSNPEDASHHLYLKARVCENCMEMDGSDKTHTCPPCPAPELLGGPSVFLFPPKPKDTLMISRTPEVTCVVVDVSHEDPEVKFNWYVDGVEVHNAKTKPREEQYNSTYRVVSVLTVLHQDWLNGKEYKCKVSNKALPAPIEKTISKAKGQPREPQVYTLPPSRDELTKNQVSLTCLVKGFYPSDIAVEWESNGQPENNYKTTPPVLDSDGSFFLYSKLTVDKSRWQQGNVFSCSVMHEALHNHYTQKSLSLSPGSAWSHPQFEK
Chain of Macaca fascicularis CD3ε/δ-Fc fusion heterodimer (Macaca fascicularis) (Q95LI8 22-105, stated change not applied, chain 2 of 2): as the sequence (P04234 22-105, stated change not applied, chain 2 of 2) above, with I5V, N15K, I20V, S32T, D33N, I34N, T64A, S74N, V83L counted along it
Chain of Macaca fascicularis CD3 (TCR complex) on cyno HSC-F cells (Macaca fascicularis) (Q95LI5 22-198 limits assumed, one chain of several): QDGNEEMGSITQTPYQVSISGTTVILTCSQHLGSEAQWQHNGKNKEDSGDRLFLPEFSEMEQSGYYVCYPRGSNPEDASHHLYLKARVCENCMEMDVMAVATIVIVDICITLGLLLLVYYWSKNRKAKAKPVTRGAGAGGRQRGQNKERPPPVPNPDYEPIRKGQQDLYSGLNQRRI

As for “CODV-Fab 7G3 × I2C (bispecific antibody)”, the Kd – broadly, the concentration at which binding is half-saturated – in experiment [1] stood at 0.4 nM. In [2], the Kd was found to be 0.5 nM; the koff (in general, the first-order rate constant of dissociation) came out at 0.002 s⁻¹; the association rate constant (kon) (as a rule, the rate constant with which the complex forms) stood at 4e+06 M⁻¹ s⁻¹. Moreover, in [3], the Activity EC50 (cytotoxic assay, THP-1 targets + primary human T cells) turned out to be 0.02 µg/mL.

In the case of FN18 (antibody), the geometric mean of relative fluorescence intensity in [4] was found to be 1260 rfu; in experiment [5] it was 7 rfu; in experiment [6] it was 7 rfu; in [7], 1260 rfu.

Take SP-34 (antibody): the ratio KD(cy)/KD(hu) in experiment [8] was 5. In experiment [9], the Kd was 13 nM, the dissociation rate constant (koff) was found to be 0.0028 s⁻¹ and the kon turned out to be 220000 M⁻¹ s⁻¹. In [10], this substance gave a Kd of 2.7 nM, an off-rate constant (koff) of 0.003 s⁻¹ and a kon of 1.1e+06 M⁻¹ s⁻¹.

Take I2C Fab (monospecific anti-CD3 Fab): the Kd in experiment [11] came out at 0.5 nM. Besides, in experiment [12], the dissociation constant (Kd) was 0.13 nM, the koff was 0.0013 s⁻¹ and the kon came out at 1.1e+07 M⁻¹ s⁻¹.

On to OKT3 (antibody), for which, in experiment [13], the RU of Fab binding at 100 nM came out at 3 RU.
